System: MS2 coat protein
Test: apparent KD of MS2 coat protein; designed switch direction (-1 OFF switch, 1 ON switch): 1; higher = weaker reporter binding
Outline: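 The buffer was Tris-HCl pH 7.5 with KCl, MgCl2, BSA, DTT, tRNA and Tween-20. In it, SNAP-549-labelled MS2 coat protein was titrated in doubling steps from 0.7 or 1.5 nM to 3 µM over chip-bound RNA switches transcribed by stalled E. coli RNA polymerase on Illumina chips. Apparent KD is the per-design median over clusters of curve fits to normalised fluorescence.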

[1] = Eterna round: R95, input ligand: FMN 200 uM
[2] = Eterna round: R95, input ligand: microRNA oligo, concentration not stated
[3] = Eterna round: R95, input ligand: none
[4] = input ligand: microRNA oligo, concentration not stated

| Sequence | apparent KD of MS2 coat protein [1] | apparent KD of MS2 coat protein [2] | apparent KD of MS2 coat protein [3] | apparent KD of MS2 coat protein (input ligand: FMN 200 uM) | apparent KD of MS2 coat protein [4] | apparent KD of MS2 coat protein (input ligand: none) |
| --- | --- | --- | --- | --- | --- | --- |
| AAAACACAUGAGGAUCACCCAUGUACCAGGUACAUAGGAUAUCCAGGCGCCAGAUGGCGCGGAGAAGGAUGGAAAA [Xeveoned] (puzzle: Same State 1) | 90.8 nM | 162 nM | 251 nM |  |  |  |
| AAAACAUGACGAGGAUAUGGUACAUGAGGAUCACCCAUGUAUGUACCACGACGGAAACGUCGAAUCCAGAAGGCGUCAUGAAAA [Mat - Same State NG 2 - JL mod - D25] (Eterna round: R96, puzzle: Same State NG 2) |  |  |  | 34.6 nM | 173 nM | 194 nM |
| AAAAGUUGCGGGCAGGAUAUGUAUUAAAAUACAUGAGGAUCACCCAUGUGCGGGUAUAACACCCGACAGAAGGGCCAAUCGCGAC [Mat - Same State 2 - Mod of UCT - D95] (puzzle: Same State 2) | 29.6 nM | 160 nM | 226 nM |  |  |  |
| AAAAUACAUGAGGAUCACCCAUGUCUAAAGAACGGAGGAUAUAGGCGUACAAAACACGCACUAGAAGGCUGGGUGC [Tesoonge] (puzzle: Same State 1) | 151 nM | 116 nM | 155 nM |  |  |  |
| AAAAUACAUGAGGAUCACCCAUGUGAAAAUAUGGGAGGAUAUACCGAAAAAAAAAAAAAGGUAGAAGGCCCAAAAA [SS! 1 MT 5] (Eterna round: R96, puzzle: Same State 1) |  |  |  | 39.5 nM | 31 nM | 34.6 nM |
| AAACAGUCGCUGCGGCGACCACAUGAGGAUCACCCAUGUACAUAGGAUAUCGCCUAAAAUACUGGCGAGAAGGGUGAUUAAAGA [Vegeonor] (Eterna round: R96, puzzle: Same State NG 3) |  |  |  | 90.4 nM | 12.4 nM | 55.9 nM |
| AAACGGCCGAACGGAGGACCACAUGAGGAUCACCCAUGUACAUAGGAUAUCAUGCCAACGAGGCAUGAGAAGGGUGAUUAAAAC [Ribigeso] (Eterna round: R96, puzzle: Same State NG 3) |  |  |  | 126 nM | 27.6 nM | 32 nM |
| AAACUGGAGGACAAGGAUAUGUGCUCUACGACAUGAGGAUCACCCAUGUGAGACGUAGUAGUGAAACAGAAGGUGUCCUAUUGUA [Tiarri] (Eterna round: R96, puzzle: Same State 2) |  |  |  |  | 14.2 nM |  |
| AAAGAAAACAUAGGAUAUGUAACAUGAGGAUCACCCAUGUGUAGCCCGUAAGGGAUGACGGAUGGACAGAAGGAUGGUCUCAGG [Default title] (Eterna round: R96, puzzle: Same State NG 2) |  |  |  | 403 nM | 155 nM | 104 nM |
| AAAGCAAUGGUACAGGAUAUGUACGGUCGUACAUGAGGAUCACCCAUGUCGCUGGAAAGGUAGAUACAGAAGGGUGCCCAUGCGU [Riintile] (puzzle: Same State 2) | 34.4 nM | 161 nM | 210 nM |  |  |  |
| AAAGCCCGUGCUAAGGAUAUGCGUACUCCUACAUGAGGAUCACCCAUGUCCCGCCGAAAAGGAAGGCAGAAGGUAGCACGAGCAA [Teerarti] (puzzle: Same State 2) | 53.7 nM | 96.5 nM | 102 nM |  |  |  |
| AAAUAAAACACAGGAUAUGCAACCAAUACGGCGGCAGAAGGGUGAGACAUGAGGAUCACCCAUGUACACGUCCCACAGACGUGC [Onlaa] (Eterna round: R96, puzzle: Same State NG 1) |  |  |  | 387 nM | 243 nM | 175 nM |
| AACAAGCACAUGAGGAUCACCCAUGUGAGAAUAAAACCCUCAUAGGAUAUCCGCGGUUAACUCCCGGAGAAGGGUGAGACUCCU [Edtiedus] (Eterna round: R96, puzzle: Same State NG 3) |  |  |  | 266 nM | 429 nM | 390 nM |
| AACAAUCUAUCUGAGGAUAUCAUGAAAAAAACAUGAGGAUCACCCAUGUGCAGGAAAACUGCAUAUGAGAAGGCAGAUAGAUUGU [salish99_SS2_r3_002] (Eterna round: R96, puzzle: Same State 2) |  |  |  |  | 480 nM |  |
| AACAAUCUAUCUGAGGAUAUCAUGAAAAAAACAUGAGGAUCACCCAUGUGCAGGAAAACUGCAUAUGAGAAGGCAGAUAGAUUGU [salish99_SS2_r3_002] (puzzle: Same State 2) | 28.9 nM | 621 nM | 769 nM |  |  |  |
| AACAAUCUAUCUGAGGAUAUCAUGAAAUAAACAUGAGGAUCACCCAUGUGCAUGAAAACUGCAUAUGAGAAGGCAGAUAGAUUGA [salish99_ss2_r3_038] (puzzle: Same State 2) | 54.8 nM | 415 nM | 472 nM |  |  |  |
| AACAAUCUAUCUGAGGAUAUCAUGAUAAGAACAUGAGGAUCACCCAUGUGCAGGAAAACUGCAUAUGAGAAGGCAGAUAGAUUGG [Mat - Same State 2 - Mod - D19] (puzzle: Same State 2) | 42.5 nM | 492 nM | 472 nM |  |  |  |
| AACAAUCUAUCUGAGGAUAUCAUUAAAUAAACAUGAGGAUCACCCAUGUGCAGGAAAACUGCAUAUGAGAAGGCAGAUAGAUUGA [salish99_ss2_r3_029] (puzzle: Same State 2) | 12.3 nM | 46.2 nM | 55.2 nM |  |  |  |
| AACAUACAUGAGGAUCACCCAUGUUCCGGCAGGACAGGAUAUACAUCGAAAGUGUUAUAAGUAGAAGGGUCAUAAA [JR_SS001_Sub012] (Eterna round: R96, puzzle: Same State 1) |  |  |  | 63.4 nM | 56.6 nM | 79.8 nM |
| AACAUGUGGUGUCACAUGAGGAUCACCCAUGUGGUAAAACCUGAGGAUAUAACGAACCAAAUCAAUUAGAAGGUAGGAUCACAA [AK SSNG3-V2-18] (Eterna round: R96, puzzle: Same State NG 3) |  |  |  | 59.7 nM | 46.5 nM | 64.2 nM |
| AACAUUCUAUCUGAGGAUAUCAUGAAAUAAACAUGAGGAUCACCCAUGUGCAGGAAAACUGCAUAUGAGAAGGCAGAUAGAUUGA [salish99_ss2_r3_022] (puzzle: Same State 2) | 44.9 nM | 1870 nM | 3320 nM |  |  |  |
| AAGAAAUCCGCAGGAUAUCCUAAGCCGGGCUUAGGAGAAGGGUGGCCACAUGAGGAUCACCCAUGUAAAAGCUGAAUCACAGCC [Aerququ] (Eterna round: R96, puzzle: Same State NG 1) |  |  |  | 237 nM | 388 nM | 523 nM |
| AAGAAGACGAACAAGGAUAUGUCAAAGGAAACAUGAGGAUCACCCAUGUAGAGAUUGGAAAAGAAACAGAAGGUGUACAGAGAGA [JR_SS2_Sub006] (puzzle: Same State 2) | 18.7 nM | 33.2 nM | 24.5 nM |  |  |  |
| AAGCCUAAACGGCGAAAACGACAUGAGGAUCACCCAUGUACACAGGAUAUCAGCCUGCUACAGGCUGAGAAGGGUGAACCUAAA [Maisveon] (Eterna round: R96, puzzle: Same State NG 3) |  |  |  | 797 nM | 63.8 nM | 113 nM |
